Assay [1] addresses T1, recombinant human VEGF165 (human, UniProt P15692-4 27-191).
T1 construct: also called hVEGF165; rhVEGF165
The assay is described as follows: ProteOn, periplasmic extract 1/10 on hVEGF165 chip. An excerpt: One additional variant is constructed in which the potential oxidation site at position M30 (CDR1 region, see FIG. 19 indicated as bold italic residue) is removed by introduction of a M30I mutation.
Target sequence in this assay (P15692 other isoform, or with tags, fused parts or gaps limits assumed): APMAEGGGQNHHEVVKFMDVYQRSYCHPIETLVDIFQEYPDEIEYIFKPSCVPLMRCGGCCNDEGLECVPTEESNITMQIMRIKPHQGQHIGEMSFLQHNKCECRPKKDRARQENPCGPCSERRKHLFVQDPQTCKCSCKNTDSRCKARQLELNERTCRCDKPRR

Assay [2] deals with VEGF. The assay is described as follows: cell-based or functional assay.
Assay [3] concerns the target T1, recombinant human VEGF165. The assay is described as follows: binding ELISA, coated rhVEGF165. A general note: In an ELISA, binding on a coated surface is turned into a signal by an enzyme label.
Target sequence in this assay (P15692 other isoform, or with tags, fused parts or gaps limits assumed): as above
For assay [4], the target named is T1, recombinant human VEGF165. Put plainly: VEGF/VEGFR1 competition AlphaScreen. As to the method:
(§1) Finally, streptavidin donor beads (20 μg/ml) are added and after 1 hour of incubation in the dark, fluorescence is measured on the Envision microplate reader.
Target sequence in this assay (P15692 other isoform, or with tags, fused parts or gaps limits assumed): as above
(In general: In Alpha technology, singlet oxygen from a donor bead excites a nearby acceptor bead.)

Assay [5] has as its target T1, recombinant human VEGF165. Put plainly: VEGF/VEGFR2 competition AlphaScreen. The procedure:
as §1
Target sequence in this assay (P15692 other isoform, or with tags, fused parts or gaps limits assumed): as above

The next assay addresses T2, human VEGF-C (human, UniProt P49767 103-227).
T2 construct: also called hVEGF-C
T2 sequence (looked up): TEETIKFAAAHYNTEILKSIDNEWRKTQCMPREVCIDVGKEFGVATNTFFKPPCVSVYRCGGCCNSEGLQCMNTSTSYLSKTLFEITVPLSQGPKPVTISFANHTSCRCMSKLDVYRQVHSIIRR
Put plainly: binding ELISA on coated VEGFC. The procedure: (§2) Binding to VEGFB, VEGFC, VEGFD and PIGF is assessed via a solid phase binding ELISA. In brief, VEGFB, VEGFC, VEGFD and PIGF (R&D Systems, Minneapolis, Minn., USA) are coated overnight at 4° C. at 1 μg/mL in a 96-well MaxiSorp plate (Nunc, Wiesbaden, Germany). Wells are blocked with a casein solution (1% in PBS). […] As positive controls serial dilutions of the appropriate receptors are taken along and detected with horseradish peroxidase (HRP)-conjugated goat anti-human IgG, Fc specific antibody (Jackson Immuno Research Laboratories Inc., West Grove, Pa., USA) and a subsequent enzymatic reaction in the presence of the substrate TMB (3,3′,5,5′-tetramentylbenzidine) (Pierce, Rockford, Ill., USA).

Another assay concerns the target T3, human PIGF (human, UniProt P49763-2 21-149, limits assumed).
T3 construct: also called hPIGF; PLGF
T3 sequence (looked up): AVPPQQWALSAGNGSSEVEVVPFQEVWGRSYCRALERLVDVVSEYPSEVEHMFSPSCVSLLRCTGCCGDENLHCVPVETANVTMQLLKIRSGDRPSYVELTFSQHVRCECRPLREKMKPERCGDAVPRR
Put plainly: binding ELISA on coated PIGF. As to the method:
as §2

The target of assay [6] is T1, recombinant human VEGF165. The assay is described as follows: hVEGF165/hVEGFR2-Fc competition ELISA.
A further assay concerns the target T4, human VEGF-B (human, UniProt P49765-2 22-188, limits assumed).
T4 construct: also called hVEGF-B
T4 sequence (looked up): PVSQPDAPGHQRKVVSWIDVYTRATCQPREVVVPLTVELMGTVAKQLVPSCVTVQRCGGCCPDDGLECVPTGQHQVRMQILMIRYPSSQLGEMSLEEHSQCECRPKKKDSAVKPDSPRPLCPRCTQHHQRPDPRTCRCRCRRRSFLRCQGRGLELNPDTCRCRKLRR
The assay is described as follows: binding ELISA on coated VEGFB. As to the method: as §2

Another assay concerns the target T5, human VEGF-D (human, UniProt O43915 93-201).
T5 construct: also called hVEGF-D
T5 sequence (looked up): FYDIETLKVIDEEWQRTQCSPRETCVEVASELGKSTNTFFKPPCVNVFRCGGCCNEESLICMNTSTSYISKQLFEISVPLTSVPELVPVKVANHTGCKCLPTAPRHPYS
Put plainly: binding ELISA on coated VEGF D. As to the method:
as §2

Assay [7] addresses T1, recombinant human VEGF165. Put plainly: VEGF165/hVEGFR1-Fc competition AlphaScreen. The procedure: as §1
Target sequence in this assay (P15692 other isoform, or with tags, fused parts or gaps limits assumed): as the sequence (P15692 other isoform, or with tags, fused parts or gaps limits assumed) above
Assay [8] concerns the target T1, recombinant human VEGF165. Put plainly: hVEGF165/hVEGFR2-Fc competition AlphaScreen. As to the method:
as §1

Assay [9] has as its target T6, recombinant mouse VEGF164 (mouse, UniProt Q00731-2 27-190).
T6 construct: biotinylated in the mVEGFR2 AlphaScreen; also called rmVEGF164; mVEGF164
T6 sequence (looked up): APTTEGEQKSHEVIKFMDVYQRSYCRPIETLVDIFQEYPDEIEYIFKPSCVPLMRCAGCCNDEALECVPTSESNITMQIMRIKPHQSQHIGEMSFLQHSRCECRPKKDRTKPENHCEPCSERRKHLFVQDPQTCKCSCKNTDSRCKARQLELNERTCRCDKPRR
The assay is described as follows: binding ELISA on coated mouse VEGF164. As to the method: (§3) Cross-reactivity to mouse VEGF164 is determined using a binding ELISA. […] Wells are blocked with a casein solution (1% in PBS). […] A mouse VEGF164 reactive mAb is included as positive control.

Assay [10] concerns the target T1, recombinant human VEGF165. The assay is described as follows: SPR Biacore T100, hVEGF165 on chip, Two State Reaction model. As to the method: (§4) Samples are injected for 2 min and allowed to dissociate up to 20 min at a flow rate of 45 μI/min. In between sample injections, the chip surface is regenerated with 100 mM HCl. HBS-EP+(Hepes buffer pH7.4+EDTA) is used as running buffer. Binding curves are fitted using a Two State Reaction model by Biacore T100 Evaluation Software v2.0.1.
(§5) ^{(a)}KD = kd1/kₐ₁ * (kd2/(kd2 + kₐ₂)) ^{(b)}Curves are fitted using a Two State Reaction model by Biacore T100 Evaluation Software v2.0.1
Target sequence in this assay (P15692 other isoform, or with tags, fused parts or gaps limits assumed): as the sequence (P15692 other isoform, or with tags, fused parts or gaps limits assumed) above
On the technique in general: In SPR one partner is held on a chip, and binding of the other changes the refractive index at the surface.

In assay [11] the target is T1, recombinant human VEGF165. Put plainly: ka1; SPR Biacore T100, hVEGF165 on chip, Two State Reaction model. As to the method: as §4, §5
The target of assay [12] is T1, recombinant human VEGF165. The assay is described as follows: kd1; SPR Biacore T100, hVEGF165 on chip, Two State Reaction model. The procedure:
as §4, §5

Assay [13] concerns the target T1, recombinant human VEGF165. Put plainly: SPR Biacore T100, Two State Reaction model; KD = kd1/ka1 * (kd2/(kd2 + ka2)). The procedure: as §4, §5
For assay [14], the target named is VEGF. Put plainly: cell-based or functional assay. The source holds these as a separate data set.
In assay [15] the target is T6, recombinant mouse VEGF164. The assay is described as follows: binding ELISA, coated rmVEGF164. As to the method: as §3
Assay [16] deals with T1, recombinant human VEGF165. Put plainly: VEGF165/hVEGFR1-Fc competition ELISA.

The results in this text go back to patent publication US20170247475A1 (Boehringer Ingelheim, published 2017).

A word on the koff: it is the first-order rate constant of dissociation. The term EC50 denotes the concentration giving half of the maximal effect. The % inhibition is the drop in the measured response relative to a control, in per cent. A word on the IC50: it is the point on the concentration scale where inhibition reaches its midpoint. Usually kon stands for the rate constant with which the complex forms. As usually defined, the Kd is the free concentration of one partner at which half of the binding sites on the other are occupied at equilibrium, for simple one-to-one binding.

Residue numbers refer to the chain shown, from its start. Numbers in names are those of the source.

B1: VEGFBII119G11 (VHH)
VHH: EVQLVESGGGLVQPGGSLRLSCAASGIRFMSMAWYRQAPGKQRELVARISSGGTTAYADSVKGRFTISRDNSKNTVYLQMNSLRAEDTAVYYCNTFSSRPNPWGQGTLVTVSS
notes: humanization variant of VEGFBII5B05; tested as periplasmic extract
As for B1, in assay [1], the “Binding level (RU)” value came out at 234 RU and the koff came to 0.0775 s⁻¹.

B2: VEGFBII120E10 (VHH)
VHH: B1 VHH with A23V, M30I, Q42H, A58V, R84K, Q105A, L108Q
notes: VEGFBII5B05 with the M30I mutation; tested as periplasmic extract
For the molecule B2, in assay [1], the “Binding level (RU)” value came to 257 RU and the koff was determined as 0.0468 s⁻¹.

B3: VEGFBII023 (VHH)
chain: EVQLVESGGGLVQTGDSLRLSCEVSGRTFSSYSMGWFRQAQGKEREFVVAISKGGYKYDSVSLEGRFTISKDNAKNTVYLQINSLKPEDTAVYYCASSRAYGSSRLRLADTYEYWGQGTQVTVSSGGGGSGGGGSGGGGSGGGGSGGGGSGGGGSGGGGSGGGGSEVQLVESGGGLVQAGGSLRLSCAASGRTFSNYAMGWFRQAPGKERVLVADISSSGINTYVADAVKGRFTISRDNAKNTVYLQMNSLKPEDTAVYYCAASAWWYSQMARDNYRYWGQGTQVTVSS
notes: biparatopic bivalent VHH in one chain; also called VEGFBII23B04-40GS-10E07; VEGFBI023
In the case of B3, in the assay with VEGF [2], the “% inhibition, VEGF HUVEC Erk phosphorylation assay” value turned out to be 100%. Also, in the assay with VEGF [2], the “IC50 (nM), VEGF HUVEC Erk phosphorylation assay” value turned out to be 0.25 nM. For the same molecule, the EC50 in [3] turned out to be 0.221 nM. For the same molecule, the “% inhibition” value in assay [4] came to 91%; in assay [6] it was 100%; in assay [7], 87%; in [8], 100%. Further, the IC50 in assay [4] came out at 0.044 nM; in assay [5], 0.038 nM; in assay [6], 0.213 nM; in assay [7] it was 0.048 nM; in [8], 0.046 nM. The binding result is reported as “no binding (tested: 5e-7 M)” with human VEGF-C; “no binding (tested: 5e-7 M)” with human PIGF; “no binding (tested: 5e-7 M)” in the assay with human VEGF-B; “no binding (tested: 5e-7 M)” with human VEGF-D; “binds” in assay [9]. The ka2 in assay [10] worked out at 0.024 s⁻¹. Further, in [10], the kd2 was found to be 0.00027 s⁻¹. Also, the kon in assay [11] worked out at 300000 M⁻¹ s⁻¹. Also, the koff in assay [12] came out at 0.018 s⁻¹. The Kd in assay [13] was 0.69 nM.

B4: VEGFBII021 (VHH)
chain: EVQLVESGGGLVQTGDSLRLSCEVSGRTFSSYSMGWFRQAQGKEREFVVAISKGGYKYDSVSLEGRFTISKDNAKNTVYLQINSLKPEDTAVYYCASSRAYGSSRLRLADTYEYWGQGTQVTVSSGGGGSGGGGSGGGGSGGGGSGGGGSGGGGSGGGGSGGGGSEVQLVESGGGLVQPGGSLRLSCVASGIRFMSMAWYRQAPGKHRELVARISSGGTTAYVDSVKGRFTISRDNSKNTVYLQMNSLKAEDTAVYYCNTFSSRPNPWGAGTQVTVSS
notes: biparatopic bivalent VHH in one chain; also called VEGFBII23B04-40GS-5B05
B4: the “% inhibition, VEGF HUVEC proliferation assay” value in the assay with VEGF [14] is 98%. Further, the “IC50 (nM), VEGF HUVEC proliferation assay” value with VEGF [14] was found to be 0.4 nM. Moreover, the “% inhibition, VEGF HUVEC Erk phosphorylation assay” value with VEGF [2] amounted to 103%. For the same molecule, the “IC50 (nM), VEGF HUVEC Erk phosphorylation assay” value with VEGF [2] was 0.21 nM. In addition, the EC50 in [3] worked out at 0.334 nM; in assay [15], 0.502 nM. For the same molecule, the “% inhibition” value in assay [4] is 100%; in assay [16], 97%; in assay [6] it was 100%; in assay [7] it was 100%; in assay [8], 100%. In addition, the IC50 in [4] is 0.016 nM; in [5], 0.009 nM; in assay [16] it was 0.254 nM; in [6], 0.204 nM; in assay [7], 0.012 nM; in assay [8] it was 0.007 nM. The binding result with human VEGF-C, with human PIGF, with human VEGF-B and with human VEGF-D was “no binding (tested: 5e-7 M)” each time. Moreover, the ka2 in assay [10] was determined as 0.023 s⁻¹. For the same molecule, the kd2 in [10] was 0.00019 s⁻¹. In [11], the kon amounted to 1.2e+06 M⁻¹ s⁻¹. In assay [12], the koff came out at 0.011 s⁻¹. In addition, the Kd in assay [13] came out at 0.07 nM.
